In paper PMC9482650, “Quantitative fragmentomics allow affinity mapping of interactomes” (Nature Communications, 2022):
Residue numbers refer to the chain shown, from its start.

Legend:
Test in all cases: holdup assay
Set-up in all cases: key: below the threshold = too weak to quantify, mostly under pKd 3.1 to 4
[1] = target: AHNAK1, Q09666
[2] = target: T1, LRRC7, Q96NW7
T1 sequence (Q96NW7 1440-1537, limits assumed, looked up): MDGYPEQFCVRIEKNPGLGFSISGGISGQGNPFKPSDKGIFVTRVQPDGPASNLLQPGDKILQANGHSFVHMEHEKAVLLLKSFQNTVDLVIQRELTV

[3] = target: GRID2IP_1, A4D2P6
[4] = target: T2, GRIP1_5, Q9Y3R0
T2 sequence (Q9Y3R0 568-668, limits assumed, looked up): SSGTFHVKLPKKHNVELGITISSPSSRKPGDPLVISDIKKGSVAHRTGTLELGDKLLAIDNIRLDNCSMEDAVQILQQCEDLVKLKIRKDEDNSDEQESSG

[5] = target: T3, HTRA3, P83110
T3 sequence (P83110 354-453, limits assumed, looked up): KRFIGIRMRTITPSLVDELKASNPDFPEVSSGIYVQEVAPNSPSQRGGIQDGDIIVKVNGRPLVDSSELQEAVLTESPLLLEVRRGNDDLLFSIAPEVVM

[6] = target: MAGI1_1, Q96QZ7
[7] = target: T4, ARHGAP21, Q5T5U3
T4 sequence (Q5T5U3 45-169, limits assumed, looked up): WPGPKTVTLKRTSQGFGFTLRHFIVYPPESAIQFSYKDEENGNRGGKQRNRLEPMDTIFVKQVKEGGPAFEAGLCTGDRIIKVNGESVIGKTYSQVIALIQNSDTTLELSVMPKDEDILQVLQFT

[8] = target: T5, SNTG1, Q9NSN8
T5 sequence (Q9NSN8 52-150, limits assumed, looked up): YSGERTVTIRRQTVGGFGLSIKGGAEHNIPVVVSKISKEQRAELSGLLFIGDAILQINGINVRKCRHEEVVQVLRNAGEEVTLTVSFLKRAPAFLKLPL

[9] = target: T6, NHERF3_4, Q5T2W1
T6 sequence (Q5T2W1 373-468, limits assumed, looked up): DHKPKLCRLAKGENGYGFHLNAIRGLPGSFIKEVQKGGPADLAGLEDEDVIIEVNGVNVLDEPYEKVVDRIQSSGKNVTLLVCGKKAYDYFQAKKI

[10] = target: T7, LIN7B, Q9HAP6
T7 sequence (Q9HAP6 88-185, limits assumed, looked up): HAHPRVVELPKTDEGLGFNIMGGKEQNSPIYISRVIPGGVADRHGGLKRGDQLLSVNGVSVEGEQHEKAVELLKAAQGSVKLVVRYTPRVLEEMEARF

[11] = target: MAGI2_6, Q86UL8
[12] = target: T8, MPDZ_5, O75970
T8 sequence (O75970 695-796, limits assumed, looked up): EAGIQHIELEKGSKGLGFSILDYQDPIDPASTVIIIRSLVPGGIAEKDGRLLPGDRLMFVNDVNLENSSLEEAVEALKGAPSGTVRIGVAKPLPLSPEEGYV

[13] = target: TJP2_1, Q9UDY2
[14] = target: GRASP, Q7Z6J2
[15] = target: T9, CARD11, Q9BXL7
T9 sequence (Q9BXL7 662-765, limits assumed, looked up): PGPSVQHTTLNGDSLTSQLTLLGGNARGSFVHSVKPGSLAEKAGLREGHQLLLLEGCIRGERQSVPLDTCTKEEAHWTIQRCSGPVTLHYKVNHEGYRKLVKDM

[16] = target: T10, SNTB1, Q13884
T10 sequence (Q13884 107-205, limits assumed, looked up): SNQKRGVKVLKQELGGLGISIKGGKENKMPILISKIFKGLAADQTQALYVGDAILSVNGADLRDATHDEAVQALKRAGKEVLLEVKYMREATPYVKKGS

[17] = target: T11, TIAM2, Q8IVF5
T11 sequence (Q8IVF5 885-986, limits assumed, looked up): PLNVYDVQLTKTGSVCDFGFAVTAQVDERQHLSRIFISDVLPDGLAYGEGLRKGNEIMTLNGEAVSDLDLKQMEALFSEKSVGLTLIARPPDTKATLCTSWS

[18] = target: PDZRN4_1, Q6ZMN7
[19] = target: Inadl_1, Q8NI35
[20] = target: Inadl_9, Q8NI35
[21] = target: PICK1, Q9NRD5
[22] = target: T12, LIN7A, O14910
T12 sequence (O14910 103-200, limits assumed, looked up): T7 sequence (Q9HAP6 88-185, limits assumed, looked up) with A2S, I20V, V35I, D42E, Q65H, Q77K, G78D, R89K

[23] = target: IL16_4, Q14005
[24] = target: T13, LNX2_3, Q8N448
T13 sequence (Q8N448 463-564, limits assumed, looked up): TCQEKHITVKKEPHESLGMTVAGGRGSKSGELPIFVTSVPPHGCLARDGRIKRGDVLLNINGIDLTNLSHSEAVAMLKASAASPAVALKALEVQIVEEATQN

[25] = plain residues with an end cap or a label only (N-terminal biotin on a linker: ado-ado)
[26] = plain residues with an end cap or a label only (N-terminal biotin on a linker: ttds)
[27] = plain residues with an end cap or a label only (N-terminal biotin on a linker: ahx)
[28] = plain residues with an end cap or a label only (N-terminal biotin on a linker: none)

Chain of TJP2_1, Q9UDY2 (Q9UDY2 24-128): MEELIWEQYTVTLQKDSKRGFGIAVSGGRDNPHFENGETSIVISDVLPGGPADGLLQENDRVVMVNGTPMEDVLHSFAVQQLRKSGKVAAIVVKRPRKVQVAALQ
Chain of Inadl_9, Q8NI35 (Q8NI35 1530-1615): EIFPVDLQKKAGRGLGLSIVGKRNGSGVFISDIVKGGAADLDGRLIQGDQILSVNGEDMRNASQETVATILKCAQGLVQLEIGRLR
Chain of MAGI2_6, Q86UL8 (Q86UL8 1141-1229): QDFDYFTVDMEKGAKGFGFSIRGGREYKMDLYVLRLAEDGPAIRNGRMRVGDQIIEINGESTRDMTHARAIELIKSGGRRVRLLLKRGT
Chain of Inadl_1, Q8NI35 (Q8NI35 113-229): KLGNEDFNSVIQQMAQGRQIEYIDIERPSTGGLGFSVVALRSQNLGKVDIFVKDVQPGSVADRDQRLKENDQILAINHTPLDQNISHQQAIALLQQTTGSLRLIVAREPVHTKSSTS
Chain of GRID2IP_1, A4D2P6 (A4D2P6 1-87): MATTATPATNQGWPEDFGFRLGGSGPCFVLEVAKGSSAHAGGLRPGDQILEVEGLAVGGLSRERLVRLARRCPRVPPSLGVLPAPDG
Chain of MAGI1_1, Q96QZ7 (Q96QZ7 1-106): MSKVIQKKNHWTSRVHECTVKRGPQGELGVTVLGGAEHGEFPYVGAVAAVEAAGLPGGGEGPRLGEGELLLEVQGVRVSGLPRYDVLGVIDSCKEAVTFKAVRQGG
Chain of PICK1, Q9NRD5 (Q9NRD5 17-115): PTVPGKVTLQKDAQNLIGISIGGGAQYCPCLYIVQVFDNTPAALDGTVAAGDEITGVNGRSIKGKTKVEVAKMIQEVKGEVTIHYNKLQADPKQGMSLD
Chain of GRASP, Q7Z6J2 (Q7Z6J2 96-193): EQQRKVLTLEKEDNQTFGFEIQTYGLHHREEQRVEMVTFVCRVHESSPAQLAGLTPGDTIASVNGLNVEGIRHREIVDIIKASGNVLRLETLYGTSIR
Chain of IL16_4, Q14005 (Q14005 1229-1329): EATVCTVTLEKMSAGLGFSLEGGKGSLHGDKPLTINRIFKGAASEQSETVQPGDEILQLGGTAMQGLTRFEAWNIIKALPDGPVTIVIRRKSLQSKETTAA
Chain of PDZRN4_1, Q6ZMN7 (Q6ZMN7 213-318): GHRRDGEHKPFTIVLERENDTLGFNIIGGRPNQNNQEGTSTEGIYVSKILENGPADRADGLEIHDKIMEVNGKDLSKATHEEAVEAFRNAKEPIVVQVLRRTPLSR

## LHLHGTGIQV [EPHA7, Q15375]
[1]; [25]
  pKd: below the threshold
[2]; [25]
  pKd: below the threshold
[3]; [25]
  pKd: below the threshold
[4]; [25]
  pKd: below the threshold
[5]; [25]
  pKd: 3.58
[6]; [25]
  pKd: 3.59
[7]; [25]
  pKd: 3.73
[8]; [25]
  pKd: 3.57
[9]; [25]
  pKd: 3.81
[10]; [25]
  pKd: below the threshold
[11]; [25]
  pKd: below the threshold
[12]; [25]
  pKd: 4.1
[13]; [25]
  pKd: below the threshold
[14]; [25]
  pKd: below the threshold
[15]; [25]
  pKd: below the threshold
[16]; [25]
  pKd: below the threshold
[17]; [25]
  pKd: below the threshold
[18]; [25]
  pKd: 3.57
[19]; [25]
  pKd: below the threshold
[20]; [25]
  pKd: 4.37
[21]; [25]
  pKd: 3.56
[22]; [25]
  pKd: below the threshold
[23]; [25]
  pKd: below the threshold
[24]; [25]
  pKd: 3.47

## TGDTLEKFVEGL [CBP, Q92793]
[1]; [26]
  pKd: below the threshold
[2]; [26]
  pKd: below the threshold
[3]; [26]
  pKd: below the threshold
[4]; [26]
  pKd: below the threshold
[5]; [26]
  pKd: below the threshold
[6]; [26]
  pKd: below the threshold
[7]; [26]
  pKd: below the threshold
[8]; [26]
  pKd: below the threshold
[9]; [26]
  pKd: below the threshold
[10]; [26]
  pKd: below the threshold
[11]; [26]
  pKd: below the threshold
[12]; [26]
  pKd: below the threshold
[13]; [26]
  pKd: below the threshold
[14]; [26]
  pKd: below the threshold
[15]; [26]
  pKd: below the threshold
[16]; [26]
  pKd: below the threshold
[17]; [26]
  pKd: below the threshold
[18]; [26]
  pKd: below the threshold
[19]; [26]
  pKd: below the threshold
[20]; [26]
  pKd: below the threshold
[21]; [26]
  pKd: below the threshold
[22]; [26]
  pKd: below the threshold
[23]; [26]
  pKd: below the threshold
[24]; [26]
  pKd: below the threshold

## HSGSYLVTSV [APC, P25054]
[1]; [27]
  pKd: below the threshold
[2]; [27]
  pKd: 4.14
[3]; [27]
  pKd: below the threshold
[4]; [27]
  pKd: below the threshold
[5]; [27]
  pKd: below the threshold
[6]; [27]
  pKd: below the threshold
[7]; [27]
  pKd: below the threshold
[8]; [27]
  pKd: 4.23
[9]; [27]
  pKd: below the threshold
[10]; [27]
  pKd: below the threshold
[11]; [27]
  pKd: 4.85
[12]; [27]
  pKd: below the threshold
[13]; [27]
  pKd: below the threshold
[14]; [27]
  pKd: 5.06
[15]; [27]
  pKd: below the threshold
[16]; [27]
  pKd: 4.05
[17]; [27]
  pKd: below the threshold
[18]; [27]
  pKd: below the threshold
[19]; [27]
  pKd: below the threshold
[20]; [27]
  pKd: below the threshold
[21]; [27]
  pKd: below the threshold
[22]; [27]
  pKd: below the threshold
[23]; [27]
  pKd: below the threshold
[24]; [27]
  pKd: below the threshold

## RGGFGRQTQI [NCBP2L, A6PVI3]
[1]; [25]
  pKd: below the threshold
[2]; [25]
  pKd: below the threshold
[3]; [25]
  pKd: below the threshold
[4]; [25]
  pKd: below the threshold
[5]; [25]
  pKd: below the threshold
[6]; [25]
  pKd: below the threshold
[7]; [25]
  pKd: below the threshold
[8]; [25]
  pKd: below the threshold
[9]; [25]
  pKd: below the threshold
[10]; [25]
  pKd: 3.89
[11]; [25]
  pKd: 3.78
[12]; [25]
  pKd: below the threshold
[13]; [25]
  pKd: 3.88
[14]; [25]
  pKd: below the threshold
[15]; [25]
  pKd: below the threshold
[16]; [25]
  pKd: 4.51
[17]; [25]
  pKd: 4.02
[18]; [25]
  pKd: below the threshold
[19]; [25]
  pKd: below the threshold
[20]; [25]
  pKd: below the threshold
[21]; [25]
  pKd: below the threshold
[22]; [25]
  pKd: below the threshold
[23]; [25]
  pKd: below the threshold
[24]; [25]
  pKd: below the threshold

## DSKPPLPPDEWV [MERS-E, K9N5R3]
[1]; [28]
  pKd: below the threshold
[2]; [28]
  pKd: 4.4
[3]; [28]
  pKd: 3.57
[4]; [28]
  pKd: 3.68
[5]; [28]
  pKd: 5.66
[6]; [28]
  pKd: below the threshold
[7]; [28]
  pKd: 3.76
[8]; [28]
  pKd: 3.87
[9]; [28]
  pKd: below the threshold
[10]; [28]
  pKd: below the threshold
[11]; [28]
  pKd: 4.75
[12]; [28]
  pKd: below the threshold
[13]; [28]
  pKd: 3.84
[14]; [28]
  pKd: below the threshold
[15]; [28]
  pKd: below the threshold
[16]; [28]
  pKd: 3.8
[17]; [28]
  pKd: below the threshold
[18]; [28]
  pKd: 3.49
[19]; [28]
  pKd: 3.61
[20]; [28]
  pKd: 3.57
[21]; [28]
  pKd: below the threshold
[22]; [28]
  pKd: below the threshold
[23]; [28]
  pKd: below the threshold
[24]; [28]
  pKd: below the threshold

## HRTCYLVTQL [ASIC3, Q9UHC3]
[1]; [26]
  pKd: 3.33
[2]; [26]
  pKd: 4.04
[3]; [26]
  pKd: below the threshold
[4]; [26]
  pKd: below the threshold
[5]; [26]
  pKd: 3.43
[6]; [26]
  pKd: 3.5
[7]; [26]
  pKd: 3.47
[8]; [26]
  pKd: 3.72
[9]; [26]
  pKd: 4.69
[10]; [26]
  pKd: 3.38
[11]; [26]
  pKd: 4.11
[12]; [26]
  pKd: 3.4
[13]; [26]
  pKd: 3.89
[14]; [26]
  pKd: 4.77
[15]; [26]
  pKd: below the threshold
[16]; [26]
  pKd: 4.07
[17]; [26]
  pKd: 3.3
[18]; [26]
  pKd: 4.24
[19]; [26]
  pKd: 3.52
[20]; [26]
  pKd: below the threshold
[21]; [26]
  pKd: 3.63
[22]; [26]
  pKd: below the threshold
[23]; [26]
  pKd: 3.21
[24]; [26]
  pKd: below the threshold
